# From patent US20260028391A1 (HUMABS BIOMED, published 2026)
# Tests used:
# [1] = molecular target: fusion glycoprotein of the RSV used in the neutralization assay of Example 1 (respiratory syncytial virus (strain not …)); assay: cell-based or functional assay
# [2] = molecular target: fusion glycoprotein of the MPV D280 used in the neutralization assay of Example 3 (metapneumovirus (strain )); assay: cell-based or functional assay
# [3] = molecular target: T1, RSV-A F (RSV A); assay: BLI
# T1 construct: also called RSV F A
# [4] = molecular target: T2, RSV F A L203I (RSV A, strain A2, UniProt P03420 26-574); assay: FACS, % binding to RSV F A variants
# T2 construct: whole, on cells
# [5] = molecular target: T3, RSV F A G446E (RSV A, strain A2, UniProt P03420 26-574); assay: FACS, % binding to RSV F A variants
# T3 construct: whole, on cells
# [6] = molecular target: T4, RSV F A S443P-K445N (RSV A, strain A2, UniProt P03420 26-574); assay: FACS, % binding to RSV F A variants
# T4 construct: whole, on cells
# [7] = molecular target: T5, RSV F A, A2 Ref (RSV A, strain A2, UniProt P03420 26-574); assay: FACS, % binding to RSV F A variants
# T5 construct: whole, on cells
# [8] = molecular target: T6, RSV-B F (RSV B); assay: BLI
# T6 construct: also called RSV F B
# [9] = molecular target: RSV A fusion glycoprotein (F), virus of the neutralisation assays of Tables 54 and 57 (RSV A); assay: cell-based or functional assay
# [10] = molecular target: T7, RSV F B N208D (RSV B); assay: FACS, % binding to RSV F B variants
# T7 construct: whole, on cells
# [11] = molecular target: T8, RSV F B N201S (RSV B); assay: FACS, % binding to RSV F B variants
# T8 construct: whole, on cells
# [12] = molecular target: T9, RSV F B K68N-N201S (RSV B); assay: FACS, % binding to RSV F B variants
# T9 construct: whole, on cells
# [13] = molecular target: T10, RSV F B K68N-N208S (RSV B); assay: FACS, % binding to RSV F B variants
# T10 construct: whole, on cells
# [14] = molecular target: T11, RSV F B S443P (RSV B); assay: FACS, % binding to RSV F B variants
# T11 construct: whole, on cells; also called mutant S443P
# [15] = molecular target: T12, RSV F B N208S (RSV B); assay: FACS, % binding to RSV F B variants
# T12 construct: whole, on cells; also called mutant N208S
# [16] = molecular target: T13, RSV F B, B Ref (RSV B); assay: FACS, % binding to RSV F B variants
# T13 construct: whole, on cells
# [17] = molecular target: fusion glycoprotein (F) of RSV B GFP (Tables 41 and 42) (respiratory syncytial virus B); assay: cell-based or functional assay
# [18] = molecular target: fusion glycoprotein (F) of RSV A GFP (Tables 41 and 42) (respiratory syncytial virus A); assay: cell-based or functional assay
# [19] = molecular target: fusion glycoprotein (F) of MPV A GFP (Tables 41 and 43) (metapneumovirus A); assay: cell-based or functional assay
# [20] = molecular target: biot-RSV-F wt (respiratory syncytial virus (RSV)); assay: BLI (Octet), biotinylated F on SA sensors, mAb 5 µg/ml
Binder,RSV Neutralization - IC50 [1] [ng/mL],MPV D280 Neutralization - IC50 [2] [ng/mL],Kd [3] [nM],Kd [8] [nM],"IC50, neutralization of RSVA [9] [ng/mL]",% binding [10] [%],% binding [11] [%],% binding [12] [%],% binding [13] [%],% binding [14] [%],% binding [15] [%],% binding [16] [%],further results
"MPK158 (antibody, V domains shown) VH: EVQLVESGGGLVKPGGSLRLSCAASGFSISGFYMIWIRQAPGKGLEWISDISASSSYIDYADSVKGRFTISRDNGQNTVHLLMNNLRADDTGVYYCAREQTPSPGPFDLWGQGTLVTVST VL: QPVLTQPPSVSGAPGQRVTISCTGRSSNIGAGYDVHWYQHLPGTSPKLLIYRNSNRPSGVPDRFSGSTSGTSASLAITGLQADDEADYYCQAYDRILGGWAFGGGTKLTVL",18.2,6,–,–,–,–,–,–,–,–,–,–,–
"MPK130 (antibody, V domains shown) VH: EVQLVESGGGLVKPGGSLTLSCEASGFSISGYYMIWVRQAPGKGLEWVSSISASDTYIDYAVSVQGRFTISRHNTKNSLYLQMSSLRVEDTGVYYCTREKVPSPGPFDCWGQGTLVTVSS VL: QSVLTQPPSVSGAPGQRITISCTGTSSNIGAGYDVHWYQHLPGAAPRLLIYVNTNRPSGVPDRFSGARSGTSASLAITGLQAEDEADYYCQSYDRSLGGWAFGEGTKVTVL",20.6,4.3,–,–,–,–,–,–,–,–,–,–,–
"MPK65-v2-v1.2 (antibody, V domains shown) VH: QVPLVQSGAEVKKPGESLKISCKGSGYSFINYWIGWVRQMPGKGLEWMGVIYPFDSDTKYSPSFQGHVTISADKSSNTAYVQWSSLKASDTAMYYCARFTFGIAVVTDDVSGEGQAFEIWGQGTMVTVSS VL: QIVMMQSPATLSVSPGERATLSCRASQSVAGNLAWYQQRPGQAPRLLIYGASTRATGVPARFSGSGSETEFTLTISSLQSEDFAVYYCHQYSNLPQAFGQGTRLDIK",–,–,0.205,0.581,4.38,0.47,35.9,30.8,0.047,33.8,0.041,56.4,% binding [4]: 18%; % binding [5]: 25.4%; % binding [6]: 33.5%; % binding [7]: 56%
"MPK201-v1.2 (antibody, V domains shown) VH: EVQLVQSGAEVKKPGESLKISCQGSGYSFINYWIGWVRQKPGKGLEWMGIIYPFDSETKYSPSFQGHVTFSADKSINTAYVQWSSLRASDTAMYYCARFTFGLAVTTADVSGEGQAFEIWGQGTMVTVSS VL: QIVMMQSPATLSVSPGERATLSCRASQSVAGNLAWYQQRPGQAPRLLVYGASTRASGVPARFSGSGSETEFTLTISSLQSEDFAVYYCHHYSDLPQAFGQGTRLDIK",–,–,0.211,0.161,2.88,0.015,47.7,47.3,12.1,45.8,14.4,61.3,% binding [4]: 40%; % binding [5]: 29%; % binding [6]: 36%; % binding [7]: 66.9%
"MPK65-v2-v3.1 (antibody, V domains shown) VH: QVPLVQSGAEVKKPGESLKISCKGSGYSFISYWIGWVRQMPGKGLEWMGVIYPFDADTKYSPSFQGHVTISADKSSNTAYVQWSSLKASDTAMYYCARFTFGIAVVTDDVSGEGQAFEIWGQGTMVTVSS VL: EIVMMQSPATLSVSPGERATLSCRASQSVAGNLAWYQQRPGQAPRLLIYGASTRATGVPARFSGSGSETEFTLTISSLQSEDFAVYYCHQYSNWPQAFGQGTRLDIK",–,–,0.192,0.639,5.4,0.14,31.3,22.6,0.052,30.6,0.029,60.1,–
"MPK176-v4.3 (antibody, V domains shown) VH: QVQLVQSGAEVKKPGASVRVSCKASGYTLTAYGISWVRQAPGQGLEWMGWISPKHGSTHYAQRFQGRVTMTTDTSTSTAYMELRSLRPDDTAVYFCAREGVDIMAVPWYFDYWGQGTLVAVSS VL: SYVLTQPPSVSVAPGQTARISCGGNNIGSKSVHWYQQKPGQAPVVVVYDDSKRPSGIPERFSGSNSGNTATLTISGVEAGDEADYFCQVWDSATDHWVFGGGTKLTVL",–,–,0.139,0.0117,4.35,–,60.6,60.4,59.3,29.8,61.2,34.2,–
"MPK204 (antibody, V domains shown) VH: QVQLVESGGGLVKPGGSLRLSCEASGLSLSGYYMIWIRQAPGKGLEWISSISSSSNYIDYADSVKGRFTISRHNGQNTLYLQMNSLRVEDTAVYYCATEQTPSPGPFDLWGQGTLVTVSS VL: QSVLTQPPSVSGAPGQRVTISCTGTSSNIGTGYDVHWYQQFPGTSPKLLIYRNTNRPSGVPDRFSGSKSGSSASLAIAGLQAEDEADYYCQSYDRSVSGWVFGGGTKLTVL",12.1,6,–,–,–,–,–,–,–,–,–,–,–
"MPK146 (antibody, V domains shown) VH: QVQLVESGGGLVKPGGSLRLSCAASGFTFSGYYMIWIRQAPGKGLEWIASISGSSNYIDYADSVRGRFTISRDNARNILDLQMNSLRAGDTALYYCATEQVPSPGPFDLWGQGTLVTVSS VL: QSVLTQPPSVSGAPGQRVTISCTGSNSNLGAGYDVHWYQQFPGTSPKLLIYRNTNRPSGVPDRFAGSKSGTSASLAITGLQAEDEADYYCQSYDRSLSGWVFGGGTKLTVL",16.6,5.4,–,–,–,–,–,–,–,–,–,–,–
"MPK133 (antibody, V domains shown) VH: QVQLVQSGGGLVKPGGSLRLSCAASEFSFSGYFMIWIRQAPGKGLEWISYISGSSTYTNYADSVKGRFTISRDNAQNTLYLEMNSLRAEDTGVYYCATEQVPSPGPFDLWGQGTLVTVSS VL: QSVLTQPPSVSGAPGQRVTISCTGSSSNIGAGYDVHWYQQFPGRSPTLLIYRNTNRPSGVPDRFSGSQSGSSASLAITGLQAEDEADYYCQSYDRTLSGWAFGGGTKVTVL",21.1,3.5,–,–,–,–,–,–,–,–,–,–,–
"RSD5-FR-GL-rIgG1 (antibody, V domains shown, Germline-reverted version of RSD5 (framework regions), recombinant IgG1; also called RSD5-FR-GL-rlgG1) VH: QVQLVESGGGVVQPGRSLRLSCAASGFAFNNFAMHWVRQAPGKGLEWVAVVSYDGTSPYYADSVKGRFTISRDNSKNTLYLQMNSLRAEDTAVYYCARGLGSGSYSWIGYFYAMDVWGQGTTVTVSS VL: QSALTQPASVSGSPGQSITISCTGTSSDVGGYVYVSWYQQHPGKAPKLMIYDVSNRPSGVSNRFSGSKSGNTASLTISGLQAEDEADYYCISYTDRNTVVFGGGTKLTVL",–,–,–,–,–,–,–,–,–,–,–,–,"IC50 (ng/ml), RSV B GFP neutralization [17]: 1.14 ng/mL; IC50 (ng/ml), RSV A GFP neutralization [18]: 1.27 ng/mL; IC50 (ng/ml), MPV A GFP neutralization [19]: > 2000 ng/mL; Kd [20]: 1.46 nM"
